For one assay, the target named is T1, human RGMc (human, UniProt Q6ZVN8 36-400, limits assumed).
T1 construct: ELISA antigen for the yeast-derived antibodies; a human RGMc-Fc was used for negative selection but the ELISA antigen is not specified
T1 sequence (looked up): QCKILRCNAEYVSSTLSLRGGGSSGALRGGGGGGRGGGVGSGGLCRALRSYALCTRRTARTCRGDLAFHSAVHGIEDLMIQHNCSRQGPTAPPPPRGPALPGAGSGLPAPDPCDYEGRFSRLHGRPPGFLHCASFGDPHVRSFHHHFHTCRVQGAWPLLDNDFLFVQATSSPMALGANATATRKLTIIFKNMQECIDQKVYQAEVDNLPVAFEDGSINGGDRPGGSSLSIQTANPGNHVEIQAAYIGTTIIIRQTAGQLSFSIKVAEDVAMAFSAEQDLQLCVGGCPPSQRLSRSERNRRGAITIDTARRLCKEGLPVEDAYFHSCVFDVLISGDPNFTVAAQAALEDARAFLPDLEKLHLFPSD
In words: ELISA. (In general: ELISA stands for enzyme-linked immunosorbent assay.)

Assay [1] concerns the target T2, hRGMc-His (human, UniProt Q6ZVN8 36-400, limits assumed).
T2 construct: also called human RGMc; not shown: His tag
T2 sequence (looked up): T1 sequence (looked up)
Kind of assay: hRGMc-His ELISA.

Assay [2] has as its target T2, hRGMc-His. In words: direct binding ELISA (hRGMc-His).
Assay [3] addresses T3, hRGMa-His (human, UniProt Q96B86 48-422, limits assumed).
T3 construct: also called human RGMa (BIAcore); not shown: His tag
T3 sequence: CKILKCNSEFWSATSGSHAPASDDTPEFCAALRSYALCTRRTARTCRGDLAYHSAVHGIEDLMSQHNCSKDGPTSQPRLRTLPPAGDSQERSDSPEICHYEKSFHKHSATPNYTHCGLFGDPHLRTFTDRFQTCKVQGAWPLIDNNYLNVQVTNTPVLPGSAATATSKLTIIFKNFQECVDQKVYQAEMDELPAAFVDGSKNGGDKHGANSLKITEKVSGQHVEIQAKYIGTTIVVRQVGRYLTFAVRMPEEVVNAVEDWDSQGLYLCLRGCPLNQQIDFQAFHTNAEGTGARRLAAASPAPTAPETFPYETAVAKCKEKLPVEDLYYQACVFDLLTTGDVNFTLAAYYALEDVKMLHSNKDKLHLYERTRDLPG
In words: BIAcore. Background: In SPR one partner is held on a chip, and binding of the other changes the refractive index at the surface.

A further assay concerns the target T4, Cyno RGMa-His (cynomolgus monkey, UniProt Q9N0A6 54-431, limits assumed).
T4 construct: also called cynomolgus (cyno) monkey RGMa (BIAcore); not shown: His tag
T4 sequence (looked up): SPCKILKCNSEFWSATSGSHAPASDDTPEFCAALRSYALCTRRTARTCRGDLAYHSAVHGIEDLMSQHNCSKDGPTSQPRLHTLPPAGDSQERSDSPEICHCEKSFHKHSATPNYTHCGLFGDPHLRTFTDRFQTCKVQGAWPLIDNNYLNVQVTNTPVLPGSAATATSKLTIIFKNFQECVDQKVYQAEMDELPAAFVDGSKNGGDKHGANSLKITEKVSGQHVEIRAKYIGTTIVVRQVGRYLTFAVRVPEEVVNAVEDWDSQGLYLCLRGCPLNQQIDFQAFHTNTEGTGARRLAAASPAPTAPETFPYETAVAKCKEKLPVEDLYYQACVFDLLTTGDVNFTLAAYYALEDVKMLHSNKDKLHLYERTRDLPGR
In words: BIAcore.

Assay [4] addresses T3, hRGMa-His. In words: BIAcore. The source holds these as a separate data set.
For assay [5], the target named is T2, hRGMc-His. In words: BIAcore binding.

The text below walks through data of US20160326240A1 (published 2016).

Substitutions are numbered along the chain they refer to.

B1: AE12-23 (antibody, V domains shown)
VH: EVQLQESGPGLVKPSETLSLTCTVSGGSISGYYWSWIRQSPGKGLEWIGEIFHTGRTYYNPSLRSRLTISVDTSKNQFSLKLSSLTAADTAVYYCARDSAFGSFDYWGQGTLVTVSS
VL: DIRVTQSPSSLSASVGDRVTITCQANEDISIYLNWYQQRPGKAPKLLIYDASNLETGVPSRFSGSGSGTDFTFTISSLQPEDFATYYCQQYHTYPFTFGGGTKVDIKR
notes: kappa light chain
Take B1: the binding result with human RGMc is recorded as “binds”.

B2: AE12-7 (antibody, V domains shown)
VH: EVQLVESGGGLVQPGGSLRLSCAASGFTSSSYAMTWVRQAPGKGLEWVSGISGSGESTYYADSVKGRFTISRDNSKNTLYLQMNSLRVEDTAIYYCARQGYGAHDYWGQGTLVTVSS
VL: not shown
notes: lambda light chain
Take B2: the binding result with hRGMc-His [1] is reported as “binds”.

B3: AE12-13 (antibody, V domains shown)
VH: EVQLQESGAGLLKPSETLSLTCAVYGGSFSGYYWSWIRQPPGKGLEWIGEINHSGSTNYNPSLKSRVTISVDTSKNQFSLKLSSVTAADTAVYYCARDDGAGVFDLWGRGTLVTVSS
VL: DIQLTQSPSSLSASVGDGVTITCQASQDISNYLNWYQQKPGKAPKLLIYDASNLETGVPSRFSGSGSGTFFTLTINNLQPEDFATYYCQQSGNTPWTFGQGTKVEINR
notes: kappa light chain
Take B3: the binding result with human RGMc was “binds”.

B4: AE12-3 (antibody, V domains shown)
VH: EVQLVESGGGLVQPGRSLRLSCAASGFTFDDYAMHWVRQAPGKGLEWVAVISYDGSNKYYADSVKGRFTISRDNSKNTLYLQMNSLRAEDTAVYYCARERVYSSGKEGYYYGMDVWGQGTMVTVSS
VL: QSGLTQPPSVSAAPGQRVTISCTGSGSNIGAGYGVHWYQQLPATAPKILIYGDYNRPSGVPDRFSGSRSGTSASLTITGLQAEDEADYYCQSYDNSLRGVLFGGGTKLTVL
notes: lambda light chain
As to B4, the binding result in the assay with hRGMc-His [2] is recorded as “no binding (tested: 100 nM)”.

B5: AE12-1-F (antibody, V domains shown)
VH: EVQLVQSGAEVKKPGASVKVSCKASGYTFTSHGISWVRQAPGQGLDWMGWISPYSGNTNYAQKLQGRVTMTTDTSTSTAYMELSSLRSEDTAVYYCARVGSGPYYYMDVWGQGTLVTVSS
VL: QSALTQPRSVSGSPGQSVTISCTGTSSSVGDSIYVSWYQQHPGKAPKLMLYDVTKRPSGVPDRFSGSKSGNTASLTISGLQAEDEADYYCFSYAGTDTLFGGGTKVTVL
notes: AE12-1 variant, Cys of VL CDR-L3 replaced; IgG
For B5, in the assay with hRGMa-His [3], the “fold increased affinity vs parental AE12-1” value came out at 5 fold. Moreover, in the assay with Cyno RGMa-His, the Kd (usually a measure of binding affinity in units of concentration) stood at 5.4 nM, the koff (usually the first-order rate constant of dissociation) was found to be 0.00025 s⁻¹ and the kon (commonly a measure of how fast the partners come together) amounted to 44000 M⁻¹ s⁻¹. In the assay with hRGMa-His [4], this molecule showed a Kd of 1.4 nM, a koff of 3.9e-05 s⁻¹ and a kon of 27000 M⁻¹ s⁻¹. For the same molecule, in the assay with hRGMc-His [5], the binding result was “no binding”.

B6: AE12-1-I (antibody, V domains shown)
VH: B5 VH
VL: B5 VL with F91I
notes: AE12-1 variant; IgG
In the case of B6, in the assay with Cyno RGMa-His, binding was put at a Kd of 8.9 nM, the koff was 0.00087 s⁻¹ and the on-rate (kon) was found to be 99000 M⁻¹ s⁻¹. In the assay with hRGMa-His [4], this molecule gave a dissociation constant (Kd) of 4.5 nM, a koff of 0.00013 s⁻¹ and a kon of 30000 M⁻¹ s⁻¹. Besides, the binding result in the assay with hRGMc-His [5] is recorded as “no binding”.

B7: AE12-1-Y (antibody, V domains shown)
VH: B5 VH
VL: B5 VL with F91Y
notes: AE12-1 variant; IgG
In the case of B7, the “fold increased affinity vs parental AE12-1” value with hRGMa-His [3] is no less than 10 fold. In the assay with Cyno RGMa-His, this molecule had a Kd of 4.9 nM, a koff of 0.0002 s⁻¹ and a kon of 40000 M⁻¹ s⁻¹. In the assay with hRGMa-His [4], this molecule gave an equilibrium dissociation constant (Kd) of 0.6 nM, a koff of 1.3e-05 s⁻¹ and a kon of 22000 M⁻¹ s⁻¹. Moreover, the binding result in the assay with hRGMc-His [5] is on record as “no binding”.

B8: AE12-1-L (antibody, V domains shown)
VH: B5 VH
VL: B5 VL with F91L
notes: AE12-1 variant; IgG; also called AE-12-L
In the case of B8, in the assay with Cyno RGMa-His, the equilibrium dissociation constant (Kd) came to 10.1 nM, the koff came to 0.00067 s⁻¹ and the on-rate constant (kon) amounted to 62000 M⁻¹ s⁻¹. In the assay with hRGMa-His [4], this molecule showed a Kd of 6.6 nM, a koff of 0.00025 s⁻¹ and a kon of 38000 M⁻¹ s⁻¹. In addition, the binding result in the assay with hRGMc-His [5] is “no binding”.

B9: AE12-1-V (antibody, V domains shown)
VH: B5 VH
VL: B5 VL with F91V
notes: AE12-1 variant; read as AE12-1-V from the order of the variants; IgG
In the assay with Cyno RGMa-His, B9 registered a dissociation constant Kd of 9.2 nM, an off-rate (koff) of 0.00099 s⁻¹ and a kon of 110000 M⁻¹ s⁻¹. Further, in the assay with hRGMa-His [4], the Kd is 5.9 nM, the koff was found to be 0.00015 s⁻¹ and the association rate constant (kon) worked out at 25000 M⁻¹ s⁻¹. For the same molecule, the binding result with hRGMc-His [5] is reported as “no binding”.

B10: AE12-1-K (antibody, V domains shown)
VH: B5 VH
VL: B5 VL with F91K
notes: AE12-1 variant; IgG
In the assay with Cyno RGMa-His, B10 came in with a Kd of 9.3 nM, an off-rate (koff) of 0.00047 s⁻¹ and a kon of 51000 M⁻¹ s⁻¹. Also, in the assay with hRGMa-His [4], the Kd was 8.8 nM, the koff amounted to 0.0003 s⁻¹ and the kon was determined as 34000 M⁻¹ s⁻¹. Further, the binding result in the assay with hRGMc-His [5] is “no binding”.

B11: AE12-1-H (antibody, V domains shown)
VH: B5 VH
VL: B5 VL with F91H
notes: AE12-1 variant; IgG
Turning to B11, in the assay with Cyno RGMa-His, the dissociation constant Kd is 13.4 nM, the koff is 0.00063 s⁻¹ and the kon was 47000 M⁻¹ s⁻¹. For the same molecule, in the assay with hRGMa-His [4], the dissociation constant (Kd) was found to be 3.8 nM, the off-rate (koff) came to 0.00012 s⁻¹ and the on-rate (kon) is 32000 M⁻¹ s⁻¹. Also, the binding result with hRGMc-His [5] is “no binding”.

B12: AE12-2 (antibody, V domains shown)
VH: EVQLVQSGAEVKKPGASVKVSCKASGYTFTSYDINWVRQATGQGLEWMGWMNPNSGNTGYAQKFQGRVTMTRNTSISTAYMELSSLRSEDTAVYYCARSTSLSVWGQGTLVTVSS
VL: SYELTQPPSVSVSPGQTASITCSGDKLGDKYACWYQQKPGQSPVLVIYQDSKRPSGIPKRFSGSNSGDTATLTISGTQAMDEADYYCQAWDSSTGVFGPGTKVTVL
notes: lambda light chain
As for B12, in the assay with hRGMc-His [2], the binding result is recorded as “no binding (tested: 100 nM)”.

B13: AE12-5 (antibody, V domains shown)
VH: EVQLVQSGAEVKKPGASVKVSCKVSGHSLSELTIHWVRQAPGKGLEWMGGFDPEDGRGTYAPNFRGRVTMTEDTSTDTAYMELSGLRSEDAAVYYCATLLGEYDSYFDLWGRGTLVTVSS
VL: DVVMTQSPDFQSVTPEDKVTITCRASQSIGSCLHWYQQKPDQSPKLLIKYASQSISGVPSRFSGSGSGTDFTLTINSLEAEDAATYYCHQSSSLPYTFGQGTKLEIK
notes: kappa light chain
For B13, the binding result with hRGMc-His [2] was “no binding (tested: 100 nM)”.

B14: AE12-8 (antibody, V domains shown)
VH: EVQLLESGGGLVKPGGSLRLSCAASGFTFDDYAMHWVRQAPGKGLEWVSLISWDGGSTYYADSVKGRFTISRDNSKNSLYLQMNSLRAEDTALYYCAKDIPKVGGYSYGYGALGYWGQGTPVTVSS
VL: SYELTQPPSVSVAPGQTARITCGGNNIGDISVHWYQQKSGQAPMLVVHDDSDRPSGIPERFSGSNSGSSATLTISRVEAGDEADYHCQVWDSGSGHHVFGTGTKVTVL
notes: lambda light chain
Consider B14, for which the binding result with hRGMc-His [1] is “binds”.

B15: AE12-15 (antibody, V domains shown)
VH: EVQLVQSGAEVKEPGASVKVSCKASGYTFTDYYIQWVRQAPGHGLEWMGWINPKTGGTNYLQKFQGRVTMTRDTSTRTAYMELSSLRSDDTAFYYCVREDMNTVLATSWFDPWGQGTLVTVSS
VL: SYELTQPPSVSVSPGQTARITCSGNQLGHKFASWYQQKPGQSPVVVIYEDKKRPSGIPERFSGSNSGNTATLTISGTQAMDEADYYCQVWDVITDHYVFGTGTKVTVLG
notes: lambda light chain
Regarding B15, the binding result with human RGMc was “binds”.
